No end group written: not given here.
B4: HDM2NTD (N-terminal domain of HDM2, amino acids 1 to 125 of NP-002383) (other, human, UniProt Q00987 1-125, looked up)
chain: MCNTNMSVPTDGAVTTSQIPASEQETLVRPKPLLLKLLKSVGAQKDTYTMKEVLFYLGQYIMTKRLYDEKQQHIVYCSNDLLGDLFGVPSFSVKEHRKIYTMIYRNLVVVNQQESSDSGTSVSEN
notes: range 1-125
B5: HDMXNTD (N-terminal domain of HDMX, amino acid residues 1 to 132 of NP-001191100) (other, human, UniProt O15151 1-132, looked up)
chain: MTSFSTSAQCSTSDSACRISPGQINQVRPKLPLLKILHAAGAQGEMFTVKEVMHYLGQYIMVKQLYDQQEQHMVYCGGDLLGELLGRQSFSVKDPSPLYDMLRKNLVTLATATTDAAQTLALAQDHSMDIPS
notes: range 1-132; also called HDM4

How the values were obtained:
full-length HDM2 = target: T1, full-length HDM2 (human, UniProt Q00987 1-491); assay: ELISA, full-length HDM2 coated at 20 µg/ml, HRP anti-GST antibody, absorbance at 450 nm
T1 construct: mature
Description: (§1) HDM2 or HDMX was diluted to a concentration of 20 μg/ml in a coating buffer (pH 9.6; 0.05M carbonate-bicarbonate buffer, pH 9.6 (Sigma-Aldrich)), applied to 96-well plates (Nunc, Maxisorp) and incubated overnight at 4° C. Then, the plates were treated with 300 μl of 3% skim milk w/PBS-T (room temperature, 3 hrs) to block the binding of other proteins. The 96-well plates were washed with 200 μL of PBS-T before each well was treated with serial dilutions of 0, 50, 100, 200, 400, 800, 1200, 1600, 2400, 3200, 4800, and 6400 nM of GST-WT p53, GST-p53LZ1, GST-p53LZ2, GST, pDIQ, and pMI.
(§2) After one hour of incubation, the plates were washed three times with 300 μL of PBS-T, and incubated at room temperature for 1 hr with 100 μL of an HRP conjugated-anti-GST antibody (Abcam, 1:2000). Thereafter, treatment with TMB substrate (Pierce, 100 μL) for 5 min developed a color. A stop solution (Pierce, 100 μL) was added, followed by reading absorbance at 450 nm on microwell reader (Molecular Device, Model: 340PC384).

[1] = target: B4; assay: ELISA, HDM2NTD coated at 20 µg/ml, HRP anti-GST antibody, absorbance at 450 nm
Description: as §1, §2

[2] = target: B5; assay: ELISA, HDMXNTD coated at 20 µg/ml, HRP anti-GST antibody, absorbance at 450 nm
Description: as §1, §2

[3] = target: B4; assay: ITC, 0.5 mM p53LZ2 injected into 0.03 mM HDM2NTD, PBS pH 7.4, 18 °C
Description: Meanwhile, the binding of p53LZ2 to HDM2 and HDMX was evaluated by ITC (isothermal titration calorimetry).

[4] = target: B5; assay: ITC, p53LZ2 with HDMXNTD
[5] = target: B5; assay: ITC (FIG. 6)
GST [6] = target: T2, GST (UniProt P08515 1-218 = GST); assay: GST pull-down on glutathione resin, 12% SDS-PAGE of the eluate
T2 construct: Negative control in the pull-down; also called glutathione S-transferase tag alone (control)
T2 sequence (P08515 whole entry): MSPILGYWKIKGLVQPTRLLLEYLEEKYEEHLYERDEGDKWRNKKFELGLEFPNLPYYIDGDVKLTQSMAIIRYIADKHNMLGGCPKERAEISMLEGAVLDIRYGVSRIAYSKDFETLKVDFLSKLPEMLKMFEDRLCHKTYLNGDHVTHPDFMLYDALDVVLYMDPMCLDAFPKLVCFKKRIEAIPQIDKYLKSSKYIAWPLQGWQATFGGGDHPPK

GST [7] = target: T2, GST; assay: ELISA, HDM2NTD coated at 20 µg/ml, HRP anti-GST antibody, absorbance at 450 nm
Description: as §1, §2

GST [8] = target: T2, GST; assay: ELISA, HDMXNTD coated at 20 µg/ml, HRP anti-GST antibody, absorbance at 450 nm
Description: as §1, §2

B1: GST-p53LZ2 (leucine zipper variant p53LZ2, inventive, tagged with GST) (designed binder)
chain: RMKQLEDKVGELLFSNYWLELEVARLKKLV
modifications: not fully specified (N-terminus); also: parallel homodimer, GST junction linker letters not given here
notes: not shown: GST carrier (pGEX-4T3 vector) and its junction linker
EC50 (read off the curve) (full-length HDM2): ~300 nM
EC50 (read off the curve) [1]: ~200 nM
EC50 (read off the curve) [2]: ~200 nM

RMKQLEDKVGELLFSNYWLELEVARLKKLV (designed binder) [leucine zipper variant p53LZ2]
-TΔS [3]: 1.48 kcal/mol
Kd [3]: 17.8 nM
N [3]: 0.65
ΔH [3]: -11.8 kcal/mol
-TΔS [4]: 1.16 kcal/mol
N [4]: 0.65
ΔH [4]: -9.66 kcal/mol
Kd [5]: ~80 nM

B2: His6-HDM2NTD (other, human)
chain: HHHHHHMCNTNMSVPTDGAVTTSQIPASEQETLVRPKPLLLKLLKSVGAQKDTYTMKEVLFYLGQYIMTKRLYDEKQQHIVYCSNDLLGDLFGVPSFSVKEHRKIYTMIYRNLVVVNQQESSDSGTSVSEN
notes: range 1-125; Tag placed N-terminally by its name only
binding result (GST [6]): no binding

B3: His6-HDMXNTD (other, human)
chain: HHHHHHMTSFSTSAQCSTSDSACRISPGQINQVRPKLPLLKILHAAGAQGEMFTVKEVMHYLGQYIMVKQLYDQQEQHMVYCGGDLLGELLGRQSFSVKDPSPLYDMLRKNLVTLATATTDAAQTLALAQDHSMDIPS
notes: range 1-132; Tag placed N-terminally by its name only
binding result (GST [6]): no binding

B4
binding result (GST [7]): no binding (tested: 6400 nM)

B5
binding result (GST [8]): no binding (tested: 6400 nM)
